Experimental findings from PMC5098445 (mAbs, 2016) are described below.

The target of this assay is human insulin-like growth factor 1 receptor (Homo sapiens, UniProt P08069). The assay can be described thus: SPR.
Sequence of human insulin-like growth factor 1 receptor (P08069 31-1367): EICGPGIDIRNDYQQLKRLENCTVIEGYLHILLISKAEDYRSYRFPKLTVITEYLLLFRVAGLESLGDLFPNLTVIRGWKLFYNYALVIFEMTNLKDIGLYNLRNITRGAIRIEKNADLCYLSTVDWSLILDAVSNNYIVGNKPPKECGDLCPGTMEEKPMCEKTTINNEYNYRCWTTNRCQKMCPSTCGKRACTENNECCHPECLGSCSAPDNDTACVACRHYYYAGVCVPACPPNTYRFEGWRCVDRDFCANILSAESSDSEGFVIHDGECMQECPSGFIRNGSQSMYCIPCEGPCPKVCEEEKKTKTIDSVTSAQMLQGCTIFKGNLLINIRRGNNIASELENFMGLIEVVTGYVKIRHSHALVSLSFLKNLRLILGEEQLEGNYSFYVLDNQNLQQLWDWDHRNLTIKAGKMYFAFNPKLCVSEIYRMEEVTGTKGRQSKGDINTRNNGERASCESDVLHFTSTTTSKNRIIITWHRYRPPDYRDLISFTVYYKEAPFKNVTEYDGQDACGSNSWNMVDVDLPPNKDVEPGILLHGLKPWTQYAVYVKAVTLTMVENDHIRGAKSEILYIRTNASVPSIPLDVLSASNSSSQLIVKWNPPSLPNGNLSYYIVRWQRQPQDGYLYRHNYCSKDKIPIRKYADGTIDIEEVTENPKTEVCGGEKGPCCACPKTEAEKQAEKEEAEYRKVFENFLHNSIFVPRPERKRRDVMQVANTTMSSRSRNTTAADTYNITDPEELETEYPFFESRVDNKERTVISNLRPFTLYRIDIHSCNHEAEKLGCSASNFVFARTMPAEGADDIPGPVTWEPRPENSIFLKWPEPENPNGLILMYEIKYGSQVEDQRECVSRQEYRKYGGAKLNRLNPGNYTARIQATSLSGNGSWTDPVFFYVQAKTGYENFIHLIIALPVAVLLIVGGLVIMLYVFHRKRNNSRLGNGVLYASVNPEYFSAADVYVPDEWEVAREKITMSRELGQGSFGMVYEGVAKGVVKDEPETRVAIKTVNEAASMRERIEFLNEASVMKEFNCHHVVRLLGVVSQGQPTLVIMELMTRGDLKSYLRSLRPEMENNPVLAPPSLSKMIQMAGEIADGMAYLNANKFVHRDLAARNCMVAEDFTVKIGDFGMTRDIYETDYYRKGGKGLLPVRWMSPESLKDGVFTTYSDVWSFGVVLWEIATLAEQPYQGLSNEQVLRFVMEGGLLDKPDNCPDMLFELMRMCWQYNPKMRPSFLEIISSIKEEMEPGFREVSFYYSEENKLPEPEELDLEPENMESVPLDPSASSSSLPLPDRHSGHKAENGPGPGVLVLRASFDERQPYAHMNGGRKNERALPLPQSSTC

B1: scFv of AK18 (IGF-1R-binding region) (scFv, V domains shown)
VH: QVELVESGGGVVQPGRSQRLSCAASGFTFSSYGMHWVRQAPGKGLEWVAIIWFDGSSTYYADSVRGRFTISRDNSKNTLYLQMNSLRAEDTAVYFCARELGRRYFDLWGRGTLVSVSS
VL: EIVLTQSPATLSLSPGERATLSCRASQSVSSYLAWYQQKPGQAPRLLIYDASKRATGIPARFSGSGSGTDFTLTISSLEPEDFAVYYCQQRSKWPPWTFGQGTKVESK
As for B1, the binding result is on record as “binds”.

B2: scFv of F13B5 (IGF-1R-binding region) (scFv, V domains shown)
VH: QVELVESGGGVVQPGRSQRLSCAASGFTFSSYGMHWVRQAPGKGLEWVAIIWFDGSSTYYADSVRGRFTISRDNSKNTLYLQMNSLRAEDTAVYFCARELGRRYFDLWGRGTLVSVSS
VL: EIVLTQSPATLSLSPGERATLSCRASQSVSSYLAWYQQKPGQAPRLLIYQASKRATGIPARFSGSGSGTDFTLTISSLEPEDFAVYYCQQRSKYPPWTFGQGTKVESK
With B2, the binding result is reported as “binds”.
